Patent publication US5945329A, “Customized proteases” (Carlsberg A/S, priority 1997, dated 1999)
Positions count from the first letter of the chain named. Names may count otherwise.

Columns and labels:
[1] = biological target: T1, carboxypeptidase Y (CPD-Y) variant N51Q (Asn51 replaced with glutamine) (Saccharomyces cerevisiae, UniProt P00729, N162Q); test: Aminolysis; KN(app) of nucleophile; assay type: biochemical, yeast; conditions: Table VI; substance of the line is the substrate (leaving group varied), pH 7.5
T1 construct: made in house; host or cells: S. cerevisiae W2579 (secreted)
T1 sequence (P00729 112-532 N162Q): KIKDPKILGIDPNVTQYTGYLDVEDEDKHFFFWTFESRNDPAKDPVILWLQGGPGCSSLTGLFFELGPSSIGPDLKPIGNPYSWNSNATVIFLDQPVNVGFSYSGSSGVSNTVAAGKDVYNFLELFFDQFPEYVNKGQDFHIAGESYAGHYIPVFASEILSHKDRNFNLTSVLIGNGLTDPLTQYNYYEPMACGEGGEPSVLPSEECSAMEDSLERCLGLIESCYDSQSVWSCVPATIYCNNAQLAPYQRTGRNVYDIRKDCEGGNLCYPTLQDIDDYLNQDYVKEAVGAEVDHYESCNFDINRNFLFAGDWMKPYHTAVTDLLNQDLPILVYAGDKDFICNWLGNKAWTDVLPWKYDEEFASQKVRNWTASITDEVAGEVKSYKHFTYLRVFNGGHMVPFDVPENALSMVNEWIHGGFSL
Procedure: (§1) Aminolysis reactions were carried out in the following way. The nucleophile was dissolved in 50 mM Hepes, 5 mM EDTA and pH was adjusted to 7.5. Five (5) μl of substrate (8 mM FA-Ala-OBzl in methanol) was added to 190 μl nucleophile solution followed by 5 μl enzyme, resulting in a substrate concentration of 0.2 mM. For reactions carried out at pH 9.5, Hepes was replaced with Ches. During the reaction, 20 μl aliquots were removed from the reaction mixture and added to 50 μl 1% trifluoroacetic acid to quench the reaction. The reactant composition was determined by HPLC using a Waters HPLC equipped with a C-18 Waters Novapac 4μ reverse phase column and various gradients of acetonitrile in 0.1% trifluoroacetic acid. The separation was monitored at 302 nm allowing the direct quantification of the products from the integrated peak areas. The composition of the reaction mixture was determined at least twice during the reaction, the first time when 20-50% (preferably 35%) of the ester substrate had been consumed in the reaction and the second time when 50-90% (preferably 80%) of the substrate had been consumed. The products were collected and identified by amino acid analysis after acid hydrolysis using a Pharmacia Alpha Plus analyzer.
(§2) Further identification was obtained by co-chromatography of authentic standard compounds. The fraction of aminolysis (fa) was expressed as the ratio between the formed aminolysis product and the sum of all products being formed, i.e., unconsumed substrate was disregarded in the calculations. The KN(app), representing the nucleophile concentration at which fa is half the maximum value (a measure for the dissociation constant of the nucleophile), and famax (the highest possible fa obtained at saturation of the enzyme with nucleophile) were determined by fitting the values of fa obtained at a minimum of seven concentrations of nucleophile to a saturation. The value of fa obtained at the highest possible nucleophile concentration is designated fasat.
(§3) Aminolysis reactions were carried out in the following way. The nucleophile was dissolved in 50 mM HEPES, 5 mM EDTA and pH was adjusted to 7.5, 5 μl substrate (8 mM FA-Ala-OBzl or FA-Ala-Xaa-OH in methanol) was added to 190 μl nucleophile solution followed by 5 μl enzyme diluted in buffer to the appropriate concentration, resulting in a substrate concentration of 0.2 mM. During the reaction, 20 μl aliquots were removed from the reaction mixture and added to 50 μl 1% trifluoroacetic acid to quench the reaction. The reactant composition was determined by HPLC using a Waters HPLC equipped with a C-18 Waters Novapac 4μ reverse phase column and various gradients of acetonitrile in 0.1% trifluoroacetic acid. The separation was monitored at 302 nm allowing the direct quantification of the products from the integrated peak areas. The products were collected and identified by amino acid analysis after acid hydrolysis (Pharmacia Alpha Plus analyzer) and by co-chromatography of authentic standards. The fraction of aminolysis (fa) was expressed as the ratio between the formed aminolysis product and the sum of all products being formed, i.e. unconsumed substrate was disregarded in the calculations. The KN,app (a measure for the dissociation constant of the nucleophile) and famax (the highest possible fa obtained at saturation with nucleophile were determined by fitting the obtained fa values to the equation fa=famax /(1+KN,app /N).

[2] = biological target: T2, carboxypeptidase Y (CPD-Y) variant E145A (Glu145 replaced by alanine) (Saccharomyces cerevisiae, UniProt P00729, E256A); test: Aminolysis; KN(app) of nucleophile; assay type: biochemical, yeast; conditions: Table VI; substance of the line is the substrate (leaving group varied), pH 7.5
T2 construct: made in house; host or cells: S. cerevisiae W2579 (secreted)
Procedure: as §1, §2, §3

[3] = biological target: T3, carboxypeptidase Y (CPD-Y) variant N51S (Asn51 replaced with serine) (Saccharomyces cerevisiae, UniProt P00729, N162S); test: Aminolysis; KN(app) of nucleophile; assay type: biochemical, yeast; conditions: Table VI; substance of the line is the substrate (leaving group varied), pH 7.5
T3 construct: made in house; host or cells: S. cerevisiae W2579 (secreted)
T3 sequence (P00729 112-532 N162S): T1 sequence (P00729 112-532 N162Q) with Q51S
Procedure: as §1, §2, §3

[4] = biological target: T4, carboxypeptidase Y (CPD-Y) variant E65A (Glu65 replaced by alanine) (Saccharomyces cerevisiae, UniProt P00729, E176A); test: Aminolysis; KN(app) of nucleophile; assay type: biochemical, yeast; conditions: Table VI; substance of the line is the substrate (leaving group varied), pH 7.5
T4 construct: made in house; host or cells: S. cerevisiae W2579 (secreted)
Procedure: as §1, §2, §3

[5] = biological target: T5, yeast carboxypeptidase Y (CPD-Y), wild type (SEQ ID NO:32) (Saccharomyces cerevisiae, UniProt P00729); test: Aminolysis of ester/peptide substrates; KN(app) of nucleophile; assay type: biochemical; conditions: Table VI; substance of the line is the substrate (leaving group varied), pH 7.5
T5 construct: purchased Carlbiotech, Copenhagen, Denmark
T5 sequence (P00729 112-532): T1 sequence (P00729 112-532 N162Q) with Q51N
Procedure: as §1, §2, §3

[6] = biological target: T5, yeast carboxypeptidase Y (CPD-Y), wild type (SEQ ID NO:32); test: Hydrolysis of FA-Phe-Val-OH; assay type: biochemical
[7] = substrate: CC(C)C[C@H](NC(=O)[C@H](C)NC(=O)OCc1ccccc1)C(=O)O; test: Hydrolysis of CBZ-X-Leu-OH substrates; assay type: biochemical, yeast; conditions: other: Table X, hydrolysis at 25° C., 10 mM sodium phosphate pH 6.5
Procedure: (§4) Over-expression of selected mutant enzymes was performed according to Nielsen et al. (1990) cited supra. The mutant BamHI-BamHI PRC1 fragments of pYSP32 were inserted into the GAL expression vector pRA21 and introduced into yeast strain K2579LLR. The plasmid pRA21 is derived from p72UG (Nielsen et al. (1990) cited supra) by replacing the 918 bp BglII-SalI fragment with the 638 bp BglII-PvuII fragment of pWI3, thereby deleting the BamHI site downstream of the PRC1 gene. Mutant forms of CPD-Y were purified from culture supernatants by affinity chromatography as described in Example 1. Kinetic parameters were determined by measuring rates of hydrolysis at 25° C. of CBZ-X-Leu-OH substrates spectrophotometrically at 224 nm in 10 mM sodium phosphate buffer pH 6.5. The concentrations of substrates ranged from 0.01 to 0.5 mM. Accurate measurements were not possible with substrate concentrations exceeding 0.5 mM due to the high absorption of the substrate.

[8] = substrate: CC(C)C[C@H](NC(=O)[C@H](Cc1ccccc1)NC(=O)OCc1ccccc1)C(=O)O; test: Hydrolysis of CBZ-X-Leu-OH substrates; assay type: biochemical, yeast; conditions: other: Table X, hydrolysis at 25° C., 10 mM sodium phosphate pH 6.5
Procedure: as §4

[9] = substrate: CC(C)C[C@H](NC(=O)[C@H](CCCCN)NC(=O)OCc1ccccc1)C(=O)O; test: Hydrolysis of CBZ-X-Leu-OH substrates; assay type: biochemical, yeast; conditions: other: Table X and text, hydrolysis at 25° C., 10 mM sodium phosphate pH 6.5
Procedure: as §4

[10] = substrate: CC(C)C[C@H](NC(=O)[C@H](CCC(=O)O)NC(=O)OCc1ccccc1)C(=O)O; test: Hydrolysis of CBZ-X-Leu-OH substrates; assay type: biochemical, yeast; conditions: other: Table X and text, hydrolysis at 25° C., 10 mM sodium phosphate pH 6.5
Procedure: as §4

[11] = substrate: CC(C)C[C@H](NC(=O)[C@H](CO)NC(=O)OCc1ccccc1)C(=O)O; test: Hydrolysis of CBZ-X-Leu-OH substrates; assay type: biochemical, yeast; conditions: other: Table X, hydrolysis at 25° C., 10 mM sodium phosphate pH 6.5
Procedure: as §4

[12] = substrate: CC(C)[C@H](NC(=O)[C@H](Cc1ccccc1)NC(=O)C=Cc1ccco1)C(=O)O; test: purified protein, by the assay type; conditions: other: hydrolysis of FA-Phe-Val-OH

T2 sequence (P00729 112-532 E256A): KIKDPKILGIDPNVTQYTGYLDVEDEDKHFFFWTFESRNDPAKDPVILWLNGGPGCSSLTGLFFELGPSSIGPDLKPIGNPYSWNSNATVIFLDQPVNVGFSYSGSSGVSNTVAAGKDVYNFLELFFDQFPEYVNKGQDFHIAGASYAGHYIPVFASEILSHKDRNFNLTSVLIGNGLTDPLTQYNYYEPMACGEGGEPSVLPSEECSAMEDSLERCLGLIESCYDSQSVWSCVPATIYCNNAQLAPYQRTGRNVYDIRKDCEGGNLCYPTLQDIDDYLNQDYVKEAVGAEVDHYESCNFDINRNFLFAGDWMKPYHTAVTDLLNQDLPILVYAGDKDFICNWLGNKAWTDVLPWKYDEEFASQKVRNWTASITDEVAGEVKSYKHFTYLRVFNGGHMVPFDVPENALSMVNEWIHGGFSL
T4 sequence (P00729 112-532 E176A): as the sequence (P00729 112-532 E256A) above, with E65A, A145E counted along it

Molecule: carboxypeptidase Y (enzyme)
- kcat/KM of hydrolysis (FA-Phe-Val-OH): 2.33e+06 M⁻¹ s⁻¹
- famax of transpeptidation (nucleophile H-Val-NH2) (FA-Ala-Phe-OH): 0.06
- famax of transpeptidation (nucleophile H-Val-NH2) (FA-Ala-Leu-OH): 0.16
- famax of transpeptidation (nucleophile H-Val-NH2) (FA-Ala-Ala-OH): 0.94
- famax of transpeptidation (nucleophile H-Val-NH2) (FA-Ala-Val-OH): 0.22
- estimated CPD-Y activity relative to wild type transformants (fold of wild type) (CBZ-His-Leu-OH): 1
- estimated CPD-Y activity relative to wild type transformants (fold of wild type) (CBZ-Trp-Leu-OH): 1
- estimated CPD-Y activity relative to wild type transformants (fold of wild type) (CBZ-Gly-Leu-OH): 1
- estimated CPD-Y activity relative to wild type transformants (fold of wild type) (CBZ-Pro-Leu-OH): 1
- famax of transpeptidation (nucleophile H-Gly-NH2) (FA-Ala-Lys-OH): 0.99
- famax of transpeptidation (nucleophile H-Val-NH2) (FA-Ala-Arg-OH): 1
- famax of transpeptidation (nucleophile H-Gly-NH2) (FA-Ala-Gln-OH): 0.93
- kcat/Km of hydrolysis (CBZ-Ala-Leu-OH): 600000 M⁻¹ s⁻¹
- kcat/Km of hydrolysis (CBZ-Glu-Leu-OH): 7330 M⁻¹ s⁻¹
- kcat/Km of hydrolysis (CBZ-Lys-Leu-OH): 400 M⁻¹ s⁻¹
- kcat/Km of hydrolysis (CBZ-Ser-Leu-OH): 200000 M⁻¹ s⁻¹
- kcat/Km of hydrolysis (CBZ-Phe-Leu-OH): 6.33e+06 M⁻¹ s⁻¹

Molecule: CC(C)[C@H](NC(=O)[C@H](C)NC(=O)C=Cc1ccco1)C(=O)O [FA--Ala--Val--OH, FA-Ala-Val-OH]
- Kn,app (H-Val-NH2 as nucleophile) [1]: 2.4 ± 0.1 mM
- Kn,app (H-Val-NH2 as nucleophile) [2]: 4.2 ± 0.2 mM
- Kn,app (H-Val-NH2 as nucleophile) [3]: 1.8 ± 0.1 mM
- Kn,app (H-Val-NH2 as nucleophile) [4]: 5.7 ± 0.3 mM
- Kn,app (H-Val-NH2 as nucleophile) [5]: 1.5 ± 0.1 mM

Molecule: CC(C)[C@H](NC(=O)[C@H](Cc1ccccc1)NC(=O)C=Cc1ccco1)C(=O)O [FA-Phe-Val-OH]
- kcat [6]: 108.3 s⁻¹
- kcat /KM [6]: 2.33333e+06 M⁻¹ s⁻¹

B1: yeast carboxypeptidase Y (CPD-Y), wild type (SEQ ID NO:32) (Saccharomyces cerevisiae S288C) (protein)
chain: T1 sequence (P00729 112-532 N162Q) with Q51N
notes: purchased Carlbiotech, Copenhagen, Denmark
- Km [7]: 700 µM
- kcat [7]: 25000 mM/min/mM
- kcat/Km [7]: 36,000 min^-1 mM^-1
- Km [8]: 36 µM
- kcat [8]: 13600 mM/min/mM
- kcat/Km [8]: 380,000 min^-1 mM^-1
- kcat/Km [9]: 400 M⁻¹ s⁻¹
- kcat/Km [10]: 7330 M⁻¹ s⁻¹
- Km [11]: 70 µM
- kcat [11]: 800 mM/min/mM
- kcat/Km [11]: 12,000 min^-1 mM^-1
- Km [12]: 47 µM
